# Results published in patent US20260242419A1, “A CYCLIC PEPTIDE FOR TRAPPING INTERLEUKIN-1 BETA” (Merck Sharp & Dohme LLC, priority 2023, published 2026).
# Starred links: 1 amine or outer side, 2 acyl side, 3 side chain; linkers in the order of their positions; H or OH if unused. Non-standard residues stand in square brackets, D forms with d. PyrimAla4AcPip = (2S)-3-[2-(4-acetylpiperazin-1-yl)pyrimidin-5-yl]-2-amino-propanoic acid, CC(=O)N1CCN(c2ncc(C[C@H](N[*:1])C(=O)[*:2])cn2)CC1; TyrEtNAc = (2S)-3-[4-(2-acetamidoethoxy)phenyl]-2-amino-propanoic acid, CC(=O)NCCOc1ccc(C[C@H](N[*:1])C(=O)[*:2])cc1; dPro(4R-(4-pyridylmethyl)) = O=C(O)[C@H]1C[C@@H](Cc2ccncc2)CN1; dPro(3S-(4-Br-benzyl)) = O=C(O)[C@@H]1NCC[C@@H]1Cc1ccc(Br)cc1; Trp(βS-Me,4-F) = C[C@@H](c1c[nH]c2cccc(F)c12)[C@H](N)C(=O)O; Bip(4'-COOH) = N[C@@H](Cc1ccc(-c2ccc(C(=O)O)cc2)cc1)C(=O)O; Ala(1-bicyclo(1.1.1)pentyl) = N[C@@H](CC12CC(C1)C2)C(=O)O; dPro(4R-Bzl(4-F)) = O=C(O)[C@H]1C[C@@H](Cc2ccc(F)cc2)CN1; Ala(pyrimidin-5-yl) = N[C@@H](Cc1cncnc1)C(=O)O; Phe(4-COOH) = N[C@@H](Cc1ccc(C(=O)O)cc1)C(=O)O; Pro(cis-4-F) = O=C(O)[C@@H]1C[C@H](F)CN1; 4Pal = N[C@@H](Cc1ccncc1)C(=O)O; Cit = NC(=O)NCCC[C@H](N)C(=O)O; Dab = NCC[C@H](N)C(=O)O; Dap = NC[C@H](N)C(=O)O; Aib = CC(C)(N)C(=O)O
# Target: Recombinant human IL-1β (BioLegend 579404) (human, UniProt P01584 117-269)
# Assay: cell-based or functional assay
row,MRC5 IC50,Binder
1,0.044 nM,"cyclo([TyrEtNAc][Ala(1-bicyclo(1.1.1)pentyl)][Phe(4-COOH)]G[Pro(cis-4-F)][Trp(βS-Me,4-F)][Aib]EW[Aib][Ala(pyrimidin-5-yl)]Q[Dab]G[dPro(4R-(4-pyridylmethyl))]) (SMILES CC(=O)NCCOc1ccc(C[C@@H]2NC(=O)[C@H]3C[C@@H](Cc4ccncc4)CN3C(=O)CNC(=O)[C@H](CCN)NC(=O)[C@H](CCC(N)=O)NC(=O)[C@H](Cc3cncnc3)NC(=O)C(C)(C)NC(=O)[C@H](Cc3c[nH]c4ccccc34)NC(=O)[C@H](CCC(=O)O)NC(=O)C(C)(C)NC(=O)[C@H]([C@@H](C)c3c[nH]c4cccc(F)c34)NC(=O)[C@@H]3C[C@H](F)CN3C(=O)CNC(=O)[C@H](Cc3ccc(C(=O)O)cc3)NC(=O)[C@H](CC34CC(C3)C4)NC2=O)cc1) [SEQ ID NO: 50]"
2,0.039 nM,"cyclo([Bip(4'-COOH)][4Pal][Phe(4-COOH)]G[Pro(cis-4-F)][Trp(βS-Me,4-F)][Aib]SW[Aib]SQ[Dab]G[dPro(4R-Bzl(4-F))]) (SMILES C[C@@H](c1c[nH]c2cccc(F)c12)[C@@H]1NC(=O)[C@@H]2C[C@H](F)CN2C(=O)CNC(=O)[C@H](Cc2ccc(C(=O)O)cc2)NC(=O)[C@H](Cc2ccncc2)NC(=O)[C@H](Cc2ccc(-c3ccc(C(=O)O)cc3)cc2)NC(=O)[C@H]2C[C@@H](Cc3ccc(F)cc3)CN2C(=O)CNC(=O)[C@H](CCN)NC(=O)[C@H](CCC(N)=O)NC(=O)[C@H](CO)NC(=O)C(C)(C)NC(=O)[C@H](Cc2c[nH]c3ccccc23)NC(=O)[C@H](CO)NC(=O)C(C)(C)NC1=O) [SEQ ID NO: 5]"
3,0.021 nM,"cyclo([Bip(4'-COOH)][4Pal][Phe(4-COOH)]G[Pro(cis-4-F)][Trp(βS-Me,4-F)][Aib]EW[Aib][Cit]Q[Dab]G[dPro(4R-Bzl(4-F))]) (SMILES C[C@@H](c1c[nH]c2cccc(F)c12)[C@@H]1NC(=O)[C@@H]2C[C@H](F)CN2C(=O)CNC(=O)[C@H](Cc2ccc(C(=O)O)cc2)NC(=O)[C@H](Cc2ccncc2)NC(=O)[C@H](Cc2ccc(-c3ccc(C(=O)O)cc3)cc2)NC(=O)[C@H]2C[C@@H](Cc3ccc(F)cc3)CN2C(=O)CNC(=O)[C@H](CCN)NC(=O)[C@H](CCC(N)=O)NC(=O)[C@H](CCCNC(N)=O)NC(=O)C(C)(C)NC(=O)[C@H](Cc2c[nH]c3ccccc23)NC(=O)[C@H](CCC(=O)O)NC(=O)C(C)(C)NC1=O) [SEQ ID NO: 52]"
4,0.027 nM,"cyclo([Bip(4'-COOH)][Ala(1-bicyclo(1.1.1)pentyl)][Phe(4-COOH)]G[Pro(cis-4-F)][Trp(βS-Me,4-F)][Aib]EW[Aib][4Pal]Q[Dab]G[dPro(4R-(4-pyridylmethyl))]) (SMILES C[C@@H](c1c[nH]c2cccc(F)c12)[C@@H]1NC(=O)[C@@H]2C[C@H](F)CN2C(=O)CNC(=O)[C@H](Cc2ccc(C(=O)O)cc2)NC(=O)[C@H](CC23CC(C2)C3)NC(=O)[C@H](Cc2ccc(-c3ccc(C(=O)O)cc3)cc2)NC(=O)[C@H]2C[C@@H](Cc3ccncc3)CN2C(=O)CNC(=O)[C@H](CCN)NC(=O)[C@H](CCC(N)=O)NC(=O)[C@H](Cc2ccncc2)NC(=O)C(C)(C)NC(=O)[C@H](Cc2c[nH]c3ccccc23)NC(=O)[C@H](CCC(=O)O)NC(=O)C(C)(C)NC1=O) [SEQ ID NO: 45]"
5,0.048 nM,"cyclo([PyrimAla4AcPip][4Pal][Phe(4-COOH)]G[Pro(cis-4-F)][Trp(βS-Me,4-F)][Aib]EW[Aib][Ala(pyrimidin-5-yl)]Q[Dab]G[dPro(4R-Bzl(4-F))]) (SMILES CC(=O)N1CCN(c2ncc(C[C@@H]3NC(=O)[C@H]4C[C@@H](Cc5ccc(F)cc5)CN4C(=O)CNC(=O)[C@H](CCN)NC(=O)[C@H](CCC(N)=O)NC(=O)[C@H](Cc4cncnc4)NC(=O)C(C)(C)NC(=O)[C@H](Cc4c[nH]c5ccccc45)NC(=O)[C@H](CCC(=O)O)NC(=O)C(C)(C)NC(=O)[C@H]([C@@H](C)c4c[nH]c5cccc(F)c45)NC(=O)[C@@H]4C[C@H](F)CN4C(=O)CNC(=O)[C@H](Cc4ccc(C(=O)O)cc4)NC(=O)[C@H](Cc4ccncc4)NC3=O)cn2)CC1) [SEQ ID NO: 40]"
6,0.034 nM,"cyclo([Bip(4'-COOH)][Ala(1-bicyclo(1.1.1)pentyl)][Phe(4-COOH)]G[Pro(cis-4-F)][Trp(βS-Me,4-F)][Aib]EW[Aib][Ala(pyrimidin-5-yl)]Q[Dap]G[dPro(4R-(4-pyridylmethyl))]) (SMILES C[C@@H](c1c[nH]c2cccc(F)c12)[C@@H]1NC(=O)[C@@H]2C[C@H](F)CN2C(=O)CNC(=O)[C@H](Cc2ccc(C(=O)O)cc2)NC(=O)[C@H](CC23CC(C2)C3)NC(=O)[C@H](Cc2ccc(-c3ccc(C(=O)O)cc3)cc2)NC(=O)[C@H]2C[C@@H](Cc3ccncc3)CN2C(=O)CNC(=O)[C@H](CN)NC(=O)[C@H](CCC(N)=O)NC(=O)[C@H](Cc2cncnc2)NC(=O)C(C)(C)NC(=O)[C@H](Cc2c[nH]c3ccccc23)NC(=O)[C@H](CCC(=O)O)NC(=O)C(C)(C)NC1=O) [SEQ ID NO: 46]"
7,0.026 nM,"cyclo([Bip(4'-COOH)][Ala(1-bicyclo(1.1.1)pentyl)][Phe(4-COOH)]G[Pro(cis-4-F)][Trp(βS-Me,4-F)][Aib]EW[Aib][Ala(pyrimidin-5-yl)]Q[Dab]G[dPro(4R-(4-pyridylmethyl))]) (SMILES C[C@@H](c1c[nH]c2cccc(F)c12)[C@@H]1NC(=O)[C@@H]2C[C@H](F)CN2C(=O)CNC(=O)[C@H](Cc2ccc(C(=O)O)cc2)NC(=O)[C@H](CC23CC(C2)C3)NC(=O)[C@H](Cc2ccc(-c3ccc(C(=O)O)cc3)cc2)NC(=O)[C@H]2C[C@@H](Cc3ccncc3)CN2C(=O)CNC(=O)[C@H](CCN)NC(=O)[C@H](CCC(N)=O)NC(=O)[C@H](Cc2cncnc2)NC(=O)C(C)(C)NC(=O)[C@H](Cc2c[nH]c3ccccc23)NC(=O)[C@H](CCC(=O)O)NC(=O)C(C)(C)NC1=O) [SEQ ID NO: 43]"
8,0.021 nM,"cyclo([Bip(4'-COOH)][4Pal][Phe(4-COOH)]G[Pro(cis-4-F)][Trp(βS-Me,4-F)][Aib]SW[Aib][Ala(pyrimidin-5-yl)]Q[Dab]G[dPro(4R-(4-pyridylmethyl))]) [SEQ ID NO: 42]"
9,0.027 nM,"cyclo([Bip(4'-COOH)][Ala(1-bicyclo(1.1.1)pentyl)][Phe(4-COOH)]G[Pro(cis-4-F)][Trp(βS-Me,4-F)][Aib]EW[Aib][4Pal]Q[Dap]G[dPro(4R-(4-pyridylmethyl))]) [SEQ ID NO: 48]"
10,0.014 nM,"cyclo([Bip(4'-COOH)][4Pal][Phe(4-COOH)]G[Pro(cis-4-F)][Trp(βS-Me,4-F)][Aib]EW[Aib][Ala(pyrimidin-5-yl)]Q[Dab]G[dPro(3S-(4-Br-benzyl))]) [SEQ ID NO: 51]"
11,0.029 nM,"cyclo([Bip(4'-COOH)][4Pal][Phe(4-COOH)]G[Pro(cis-4-F)][Trp(βS-Me,4-F)][Aib]EW[Aib][4Pal]Q[Dap]G[dPro(4R-(4-pyridylmethyl))]) (SMILES C[C@@H](c1c[nH]c2cccc(F)c12)[C@@H]1NC(=O)[C@@H]2C[C@H](F)CN2C(=O)CNC(=O)[C@H](Cc2ccc(C(=O)O)cc2)NC(=O)[C@H](Cc2ccncc2)NC(=O)[C@H](Cc2ccc(-c3ccc(C(=O)O)cc3)cc2)NC(=O)[C@H]2C[C@@H](Cc3ccncc3)CN2C(=O)CNC(=O)[C@H](CN)NC(=O)[C@H](CCC(N)=O)NC(=O)[C@H](Cc2ccncc2)NC(=O)C(C)(C)NC(=O)[C@H](Cc2c[nH]c3ccccc23)NC(=O)[C@H](CCC(=O)O)NC(=O)C(C)(C)NC1=O) [SEQ ID NO: 47]"
12,0.029 nM,"cyclo([Bip(4'-COOH)][4Pal][Phe(4-COOH)]G[Pro(cis-4-F)][Trp(βS-Me,4-F)][Aib]AW[Aib][Ala(pyrimidin-5-yl)]Q[Dab]G[dPro(4R-(4-pyridylmethyl))]) (SMILES C[C@@H]1NC(=O)C(C)(C)NC(=O)[C@H]([C@@H](C)c2c[nH]c3cccc(F)c23)NC(=O)[C@@H]2C[C@H](F)CN2C(=O)CNC(=O)[C@H](Cc2ccc(C(=O)O)cc2)NC(=O)[C@H](Cc2ccncc2)NC(=O)[C@H](Cc2ccc(-c3ccc(C(=O)O)cc3)cc2)NC(=O)[C@H]2C[C@@H](Cc3ccncc3)CN2C(=O)CNC(=O)[C@H](CCN)NC(=O)[C@H](CCC(N)=O)NC(=O)[C@H](Cc2cncnc2)NC(=O)C(C)(C)NC(=O)[C@H](Cc2c[nH]c3ccccc23)NC1=O) [SEQ ID NO: 41]"
13,0.047 nM,"cyclo([TyrEtNAc][4Pal][Phe(4-COOH)]G[Pro(cis-4-F)][Trp(βS-Me,4-F)][Aib]EW[Aib][Ala(pyrimidin-5-yl)]Q[Dab]G[dPro(4R-(4-pyridylmethyl))]) (SMILES CC(=O)NCCOc1ccc(C[C@@H]2NC(=O)[C@H]3C[C@@H](Cc4ccncc4)CN3C(=O)CNC(=O)[C@H](CCN)NC(=O)[C@H](CCC(N)=O)NC(=O)[C@H](Cc3cncnc3)NC(=O)C(C)(C)NC(=O)[C@H](Cc3c[nH]c4ccccc34)NC(=O)[C@H](CCC(=O)O)NC(=O)C(C)(C)NC(=O)[C@H]([C@@H](C)c3c[nH]c4cccc(F)c34)NC(=O)[C@@H]3C[C@H](F)CN3C(=O)CNC(=O)[C@H](Cc3ccc(C(=O)O)cc3)NC(=O)[C@H](Cc3ccncc3)NC2=O)cc1) [SEQ ID NO: 49]"
14,0.021 nM,"cyclo([Bip(4'-COOH)][Ala(1-bicyclo(1.1.1)pentyl)][Phe(4-COOH)]G[Pro(cis-4-F)][Trp(βS-Me,4-F)][Aib]SW[Aib][Ala(pyrimidin-5-yl)]Q[Dab]G[dPro(4R-(4-pyridylmethyl))]) [SEQ ID NO: 44]"
